Biological target: the molecule itself
Test: crystal structure

B1: VapC1 toxin from Caulobacter crescentus CB15, full length, seleno-methionine substituted (natural protein)
chain: MAYVLDTNVAIHLRDGDPEVTTRVTALNGAILLSIISRVELEGGVYREAAQAGLRRSRLDVMLKVLPVLDFDGAAADEYRRIVESAGYSRRKVVDRMIAAQALAHRATFVTFNADDFRDIPGLSLLAW
modifications: seleno-methionine in place of methionine
stoichiometry N: 2

B2: VapB1 antitoxin from Caulobacter crescentus CB15, full length, seleno-methionine substituted (natural protein, UniProt Q9AC34 1-79, looked up)
chain: MARATGKTFRSGNSEAVRLPRDLAFGADVELTLIRSGDVLTIYPSKGSIADLVATLNQMPRPDSVEIRDEDLFPERPGL
modifications: seleno-methionine in place of methionine
stoichiometry N: 2

— article PMC5389673 (Nucleic Acids Research, 2016)
